This data set is described as follows: soluble on expression in E. coli; label from the status in PepcDB or PDB records.
As for “MRVATFSLVAQDPKTGDLGVAVASKFLAVGAVVPFAEAGVGAIATQSYANPRYGPQGLALLRQGASPEGVLEAFRRTDPGLEKRQFGLVAATGESLTFTGAECHPWAGGVAGKGFAAQGNLLSGSEVVEAMVETFLTAQAPFPERLLLALKAGEEAGGDRRGKQSAALLVVGEGKGYGGLWDRYVDLRVDDHPEPIDELFRLLSLHRLLFERPKGRRPLTEEEVRFFQGVLGRLGLYAGEAHGVFDEATERAFLALIGMENLEERYRGGPEVDEATLSYLKGRYGWS”, the “soluble on expression in E. coli” value is “soluble”.

In the case of “EPRRPRAGPEELGKILQGVVVVLSGFQNPFRSELRDKALELGAKYRPDWTRDSTHLICAFANTPKYSQVLGLGGRIVRKEWVLDCHRMRRRLPSQRYLMAGPGSSSEEDEASHSGG”, the “soluble on expression in E. coli” value was “soluble”.

Turning to “SNAMNNTQKKLKVLFIGESWHIHMIHSKGYDSFTSSKYEEGATWLLECLRKGGVDIDYMPAHTVQIAFPESIDELNRYDVIVISDIGSNTFLLQNETFYQLKIKPNALESIKEYVKNGGGLLMIGGYLSFMGIEAKANYKNTVLAEVLPVIMLDGDDRVEKPEGICAEAVSPEHPVVNGFSDYPVFLGYNQAVARDDADVVLTINNDPLLVFGEYQQGKTACFMSDCSPHWGTQQFMSWPFYTDLWVNTLQFIARK”, the “soluble on expression in E. coli” value is on record as “soluble”.

On to “MGERGVEMRLRIRFESAECEVELYEEWAPETVRAIADALPIKSTANRWGDEIYFTTQVAVEKEENSKDVVELGDVAYWIPGKAICLFFGKTPISDDKIRPASAVNVIGRIVNSMEGLKGVADGESVVVERA”, for which the “soluble on expression in E. coli” value is “not soluble”.

As to “MGHHHHHHSHMFPQAQESPAAVEVLTQVVHPSAAMASQERAQVAFKKMVQGVLQFAVCDTAAAGQLVKDGVTQVVVSEEGAVHMVAGEGAQIIMQEAQGEHMDLVESDGEISQIIVTEELVQAMVQESSGGFSEGTTHYILTELPPGVQGEPGLYSHTVLETADSQELLQAGATLGTEAGAPSRAEQLASVVIYTQEGSSAAAAIQSQRESSELQEA”, the “soluble on expression in E. coli” value is recorded as “not soluble”.

Consider “MAINNSAQKFIARNRAPRVQIEYDVEIYGSEKKIELPFVMAVLADLAGKPREELPPVTDRKFLDIDIDNFNERMKAIAPRVAFAVPNTLTGEGQLMVDITLENMDDFSPAQIARKVDALNQLLEARTQLANLQTYMDGKAGAENLVNKLLQDPTLLKTLANAPKSAATQQDVSADNESAE”, for which the “soluble on expression in E. coli” value is listed as “not soluble”.

Consider “MNIGKPRKLGKTIEDIEEGDSLSLTESIEDKDLLLYLGLTNDANPLYIQHDYAQKTEYEKPIVPSIMLMGIITSAISKHLPGPGSHVVNFSVNFVEPVFHYETLTFQLEVIKVDKMKDVITISVEAVNEQENRVLDAVVMVQPPQVTIDELTEKEGTLTYE”, for which the “soluble on expression in E. coli” value was “soluble”.

As for “MSLDQPLTFYGLKSMSGAFASYGKYADMGSRLAIAEHPQLLGHPLKYKVIDTEGNAGKAVRKVQEAIGQDGARFFQGCTLSSSALAVSKEIHKAGGVFMTPVGADEITGKDCNASTFRWSVPTYGAIRETLVPMSRQLPQAKRWYTITPQYVFGDALLDNARKVFAELGVEHIGNSYHSLQEQEFSGYLTNAIAAKPDVLVLLNFGSQASNALRQAVNFGIKDRMKVLMVWSAGLDQFQELGSDVLEGVYLGAQYWHQVDTPLNKLLVAATRKAYGINPNYPLAADYIGTKVMLEAIVKAGSLDGAAVSAALQGMRFQGPTGEELIRPGDHQVLKDYYLLRGKPQGQMRDEGHHHHHH”, the “soluble on expression in E. coli” value is “not soluble”.

Turning to “MGHHHHHHHHHHSSGHIDDDDKHMVGATVAPSSRRDFTFDLYRALASAAPSQNIFFSPVSISMSLAMLSLGAGSSTKMQILEGLGLNLQKSSEKELHRGFQQLLQELNQPRDGFQLSLGNALFTDLVVDLQDTFVSAMKTLYLADTFPTNFRDSAGAMKQINDYVAKQTKGKIVDLLKNLDSNAVVIMVNYIFFKAKWETSFNHKGTQEQDFYVTSETVVRVPMMSREDQYHYLLDRNLSCRVVGVPYQGNATALFILPSEGKMQQVENGLSEKTLRKWLKMFKKRQLELYLPKFSIEGSYQLEKVLPSLGISNVFTSHADLSGISNHSNIQVSEMVHKAVVEVDESGTRAAAATGTIFTFRSARLNSQRLVFNRPFLMFIVDNNILFLGKVNRP”, the “soluble on expression in E. coli” value is reported as “soluble”.

On to “MGSDKIHHHHHHMNNIYSDIYEKLSTLQWLMKRHQMFCQAESGPFADTSRGQGRILAMLKIQPEIATKELAYLLGIRQQSLNELLNKMEKNGYVERKPSENDKRVMIVHLTEKGKQVQQPKTDYQNIFNCLLPEELLQMSQYLDRIIEAFQLQNGNALEENNMIDWMAQARERMGDEHFEQLMSMRERAFGHMRPPKDIPGAERFSENYNGYVPDRDGFQPRNFRPDIK”, for which the “soluble on expression in E. coli” value is reported as “not soluble”.

As for “MTEDRLSAEDKKFLEVERALKEAALNPLRHATEELFGDFLKMENITEICYNGNKVVWVLKNNGEWQPFDVRDRKAFSLSRLMHFARCCASFKKKTIDNYENPILSSNLANGERVQIVLSPVTVNDETISISIRIPSKTTYPHSFFEEQGFYNLLDNKEQAISAIKDGIAIGKNVIVCGGTGSGKTTYIKSIMEFIPKEERIISIEDTEEIVFKHHKNYTQLFFGGNITSADCLKSCLRMRPDRIILGELRSSEAYDFYNVLCSGHKGTLTTLHAGSSEEAFIRLANMSSSNSAARNIKFESLIEGFKDLIDMIVHINHHKQCDEFYIKHR”, the “soluble on expression in E. coli” value is given as “soluble”.

For the sequence “MSLTPIEAMKLAAGEIAGEKSLKTLAEVVDILSQEQDVTKRFGQKGLGQRNLGRAVQLLVESSETNEGRCMVAYDVFKSLERIVLDYVPDQNDRAKYLEDLKIAKGLYRERIMTEMFNAYMDEPYAVKKDVMNYVNMIIGIDAESLGPDRMWKYKDPQTGELKALKIDERYVKNVEDRLGLKTDEQRESFRTSIRKIYGQKISVDSTYDFMDNLELVKAVTDVRLKSDIAGAGSLIGALANRTNEENQKLYDRMVDTMLKKLGYCRTCAQKTIEYFCTQEDEGHHHHHH”, the “soluble on expression in E. coli” value was “soluble”.

For the sequence “MKPIACLFAAFAALPVLAHAQTVQMPDVLAAEHALSLGKPVTATIDLTRCTGDTATTPAGTTRGGVTVNPYRIQPDNTLSFSDTHFTVRSDGTPITQFLRYSIDTSGTARFSSYIFAMPAYTLQSQVSYTCKLGEGVKLFARFLEHHHHHH”, the “soluble on expression in E. coli” value was “soluble”.

Turning to “MAKVSLEKDKIKFLLVEGVHQKALESLRAAGYTNIEFHKGALDDEQLKESIRDAHFIGLRSRTHLTEDVINAAEKLVAIGAFAIGTNQVDLDAAAKRGIPVFNAPFSNTRSVAELVIGELLLLLRGVPEANAKAHRGVWNKLAAGSFEARGKKLGIIGYGHIGTQLGILAESLGMYVYFYDIENKLPLGNATQVQHLSDLLNMSDVVSLHVPENPSTKNMMGAKEISLMKPGSLLINASRGTVVDIPALADALASKHLAGAAIDVFPTEPATNSDPFTSPLAEFDNVLLTPHIGGSTQEAQENIGLEVAGKLIKYSDNGSTLSAVNFPEVSLPLHVGRRLMHIHENRPGVLTALNKIFAEQGVNIAAQYLQTSAQMGYVVIDIEADEDVAEKALQAMKAIPGTIRARLLY”, the “soluble on expression in E. coli” value is listed as “soluble”.

With “MMIENDETLNELHNDEEFCIKEQLSHVDHDEKVHVDSIVKKSECAHNYEQREKRDRSSSVDSKPEIKKICRCHESNCSKSSKYEKSSCGSKNKSGDSLSTASTGINECLNNSKNLNEPFKFFIGGIPQYITSKDTHELNGKRVDVREENNTTPSDIQRKIFVGGLNYYWTKDTLESYFSTFGEIDVVQIVLDSSGRSRCFGFVVFSNENSVAKVLKHKRHKIYDKMVEVRKAEPKKPKMSIKRSNNKNFSKFPPHIPFMAPFPPCNKETMAQWANFMYNTCGVPFLFNQRFQNLPDFYSNYNYYQNSLENIQQSEYNN”, the “soluble on expression in E. coli” value is listed as “not soluble”.

With “MLFKRYGDPISLLRTYRLCDLMEFIFYVQEVEQEEKIYNQWLHTQMTQSLKEFKDQQKYRPLRKNKAKSTTKEEQQKALDFASQFVKPRKEGEVS”, the “soluble on expression in E. coli” value is recorded as “not soluble”.

On to “MGRDSPRDRRHRDRSPERRRRSRSRSRDRQTRRDTRRDDSPKIKREVKEEQFSDNDSPRRRRDDRGGRRDDRRDNRRDDRRDHRDDRGDRDRRDNFRRPDPVREDGKQYGLEKKEENWGKPEEPAKEKEKVNLGTSGALTEDTNTFRGVVIKYNEPPEAKKPNARWRLYPFKGEESLQVLYIHRQSAYLIGRDHKIADIPVDHPSCSKQHAVLQFRSMPFTRDDGTKARRIMPYIIDLGSGNGTFLNEKKIEPQRYIELQEKDMLKFGFSTREYVVMKEREITEEELAEGEDVKKEESD”, for which the “soluble on expression in E. coli” value is on record as “not soluble”.

Regarding “MGRSADSFDRALWWGASDEPALAAPPLRGTTDTDVAIVGGGFTGLVTALHLAEAGLAPLVLEARHVGFGASGRNGGQVIPGLKYDPEALLQKFGPDRGRALIDLVGGAADGVFDLIERHRIRCAPRRAGWIQAAHSERALPAVLNRARQWQERGVGVSILSRDEIAARTGTSLYHGGWHDPRAGGLNPLAYARGLGRAAIAAGAHLFEESPALSLIRKGAGWEIRTPEGLVRANRVLIATNAYGEGLLPGLAQSILPVQSMLVATAPLPEDLRARLMPGGVVLSETRKLAFYMRQSDDGRLVLGGRGAVGPMEDGRLMAALEAGLARIFPEAARFGIAQRWSGQLALTLDGLPHLHAPEPGLQVLLGYNGRGIALATALGRMVANHLASGEEPVFPVTPIRPLAWHRLREPVMNAGIRWYWLKDRMGFASLEHHHHHH”, the “soluble on expression in E. coli” value is listed as “not soluble”.

Regarding “MYTDSNNRNFDEVNHQHQQEQDFNGQSKYDYPQFNRPMGLRWRDDQRMMEYFMSNGPVETVPVMPILTEHPPASPFGRGPSTERPTTSSRYEYSSPSLEDIDLIDVLWRSDIAGEKGTRQVAPADQYECDLQTLTEKSTVAPLTAEENARYEDLSKGFYNGFFESFNNNQYQQKHQQQQREQIKTPTLEHPTQKAELEDDLFDEDLAQLFEDVSREEGQLNQLFDNKQQHPVINNVSLSEGIVYNQANLTEMQEMRDSCNQVSISTIPTTSTAQPETLFNVTDSQTVEQWLPTEVVPNDVFPTSNYAYIGMQNDSLQAVVSNGQIDYDHSYQSTGQTPLSPLIIGSSGRQQQTQTSPGSVTVTATATQSLFDPYHSQRHSFSDCTTDSSSTCSRLSSESPRYTSESSTGTHESRFYGKLAPSSGSRYQRSSSPRSSQSSIKIARVVPLASGQRKRGRQSKDEQLASDNELPVSAFQISEMSLSELQQVLKNESLSEYQRQLIRKIRRRGKNKVAARTCRQRRTDRHDKMSHYI”, the “soluble on expression in E. coli” value is “not soluble”.

As for “MAGDPMERIESRRARTVRQMLNIRKITYLEKTRKGIEMNSKTIGIDIGGANTKLASSDGTIVELHYLPLWKNTMLPEVLKEISQRLKPENVAVVMTGELADCFEDKEQGIRFIKENVDSAFGSGKVSYINSQGRFRKENDPLRDLAAANWAASARLIGEEIGDCIFVDVGSTTSDIIPVISGEHRAGHTDFERLLRSELVYAGTLRTNLAALLEKVKLEKGICRTSSELFATTADAYLILGEINEDKYTCETADGVGRSKIEAMRRIARLVCADLSEVGETEVYEIAEQVKEKQVSALTEAISEVAERNRLEKIAAAGLGEFLISEAAERLGFECISVAGRWGEEISKVFPAYAAARLLDKYSELEHHHHHH”, the “soluble on expression in E. coli” value is “not soluble”.

The values above are taken from the DeepSol protein solubility set.
